Results reported in paper PMC3817407.

T1: ECF20_992
T1 chain: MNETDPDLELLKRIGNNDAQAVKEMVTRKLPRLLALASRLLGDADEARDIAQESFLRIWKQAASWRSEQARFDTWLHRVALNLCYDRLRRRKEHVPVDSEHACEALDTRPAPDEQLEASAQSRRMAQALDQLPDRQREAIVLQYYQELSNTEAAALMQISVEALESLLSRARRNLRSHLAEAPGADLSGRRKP

T2: ECF33_375
T2 chain: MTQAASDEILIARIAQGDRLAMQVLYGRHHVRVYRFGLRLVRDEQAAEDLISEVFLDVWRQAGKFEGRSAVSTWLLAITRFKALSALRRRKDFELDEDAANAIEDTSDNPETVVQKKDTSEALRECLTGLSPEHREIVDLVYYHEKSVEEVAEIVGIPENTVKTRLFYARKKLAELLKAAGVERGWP

T3: ECF03_1244
T3 chain: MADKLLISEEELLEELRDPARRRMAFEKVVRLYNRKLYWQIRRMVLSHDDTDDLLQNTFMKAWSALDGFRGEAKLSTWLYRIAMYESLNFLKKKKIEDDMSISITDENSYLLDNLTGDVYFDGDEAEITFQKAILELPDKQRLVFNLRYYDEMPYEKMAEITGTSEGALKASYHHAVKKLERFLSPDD

T4: ECF02_915
T4 chain: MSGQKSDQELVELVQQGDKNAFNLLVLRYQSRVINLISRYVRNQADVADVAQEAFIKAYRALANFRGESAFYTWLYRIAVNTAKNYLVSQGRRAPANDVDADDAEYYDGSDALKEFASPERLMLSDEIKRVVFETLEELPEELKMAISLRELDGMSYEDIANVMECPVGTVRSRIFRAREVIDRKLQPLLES

T5: ECF31_34
T5 chain: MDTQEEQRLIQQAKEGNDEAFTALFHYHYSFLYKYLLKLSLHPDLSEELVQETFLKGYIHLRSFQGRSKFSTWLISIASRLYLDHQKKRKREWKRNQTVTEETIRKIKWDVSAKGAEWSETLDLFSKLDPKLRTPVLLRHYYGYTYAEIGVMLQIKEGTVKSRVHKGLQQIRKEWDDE

T6: ECF14_3200
T6 chain: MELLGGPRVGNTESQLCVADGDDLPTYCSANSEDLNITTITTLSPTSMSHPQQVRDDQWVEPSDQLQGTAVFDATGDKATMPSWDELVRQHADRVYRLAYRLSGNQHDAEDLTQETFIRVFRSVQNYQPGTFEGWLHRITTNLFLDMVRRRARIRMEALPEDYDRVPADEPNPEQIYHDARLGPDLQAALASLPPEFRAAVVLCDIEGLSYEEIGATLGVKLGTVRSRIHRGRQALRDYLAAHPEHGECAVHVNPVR

T7: ECF17_1458
T7 chain: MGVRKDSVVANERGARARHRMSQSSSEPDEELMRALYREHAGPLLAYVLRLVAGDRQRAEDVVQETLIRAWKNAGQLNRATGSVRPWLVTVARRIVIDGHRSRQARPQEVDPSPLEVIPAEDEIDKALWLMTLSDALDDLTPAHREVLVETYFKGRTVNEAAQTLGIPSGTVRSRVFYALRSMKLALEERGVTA

T8: ECF02_2817
T8 chain: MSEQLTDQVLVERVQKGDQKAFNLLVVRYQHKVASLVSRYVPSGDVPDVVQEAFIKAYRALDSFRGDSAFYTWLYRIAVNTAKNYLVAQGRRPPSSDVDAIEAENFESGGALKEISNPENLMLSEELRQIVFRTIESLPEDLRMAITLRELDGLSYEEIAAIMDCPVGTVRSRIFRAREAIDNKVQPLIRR

T9: ECF11_987
T9 chain: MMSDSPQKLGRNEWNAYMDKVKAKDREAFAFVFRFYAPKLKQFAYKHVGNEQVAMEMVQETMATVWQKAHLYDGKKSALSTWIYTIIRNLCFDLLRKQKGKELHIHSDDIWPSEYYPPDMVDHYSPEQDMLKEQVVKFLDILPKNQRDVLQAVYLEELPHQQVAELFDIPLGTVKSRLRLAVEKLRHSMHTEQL

T10: ECF03_1198
T10 chain: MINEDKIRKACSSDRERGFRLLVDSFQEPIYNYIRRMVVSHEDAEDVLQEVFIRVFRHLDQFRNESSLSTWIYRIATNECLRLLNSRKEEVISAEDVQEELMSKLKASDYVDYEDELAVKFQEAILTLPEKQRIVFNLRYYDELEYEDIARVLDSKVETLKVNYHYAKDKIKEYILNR

T11: ECF28_1040
T11 chain: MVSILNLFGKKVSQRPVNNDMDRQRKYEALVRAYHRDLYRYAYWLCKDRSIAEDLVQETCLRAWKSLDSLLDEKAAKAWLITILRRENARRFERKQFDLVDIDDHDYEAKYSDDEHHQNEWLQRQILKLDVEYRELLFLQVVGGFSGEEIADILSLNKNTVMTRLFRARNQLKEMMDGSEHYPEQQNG

T12: ECF22_4450
T12 chain: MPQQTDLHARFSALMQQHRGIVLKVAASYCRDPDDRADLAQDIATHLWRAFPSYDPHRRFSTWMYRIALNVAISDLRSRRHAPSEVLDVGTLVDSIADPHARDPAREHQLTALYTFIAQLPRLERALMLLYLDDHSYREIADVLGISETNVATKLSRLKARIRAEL

T13: ECF33_423
T13 chain: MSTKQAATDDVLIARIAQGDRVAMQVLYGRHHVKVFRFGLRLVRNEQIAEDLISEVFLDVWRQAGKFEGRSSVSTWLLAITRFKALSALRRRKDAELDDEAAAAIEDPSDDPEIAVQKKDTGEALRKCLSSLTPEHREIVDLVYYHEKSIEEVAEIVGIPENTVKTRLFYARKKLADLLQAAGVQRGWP

T14: ECF14_1324
T14 chain: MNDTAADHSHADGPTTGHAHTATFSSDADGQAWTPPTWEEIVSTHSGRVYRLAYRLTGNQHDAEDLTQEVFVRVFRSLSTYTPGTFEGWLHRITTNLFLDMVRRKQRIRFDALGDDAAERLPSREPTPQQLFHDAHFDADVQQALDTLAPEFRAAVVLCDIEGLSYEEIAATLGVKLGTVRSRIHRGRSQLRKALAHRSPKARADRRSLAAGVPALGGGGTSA

B1: AS04_1609 (protein)
chain: MNRTTEQRNAEVMKTIGLLDQMPRVEVDHLFRVRLMQRIEAMEVKKTSWSALPGGAFNPRLAFMALLLMLNIASALMLFMHGTPQATGSSGAIAESLTEDYGGPALSYYDDQTTIDR
B2: AS15_436 (protein)
chain: MAQSTEPKASPQEATAKGGDNTKGKSRKELQQQIDENLRRVYEEALVQEVPDRFAMLLDQLRQKGTGK
B3: AS01_3473 (protein)
chain: MSNYDNAELLALWLEGKLTPKQRDEFEQRCIQDSQFAEQVDAAAMVKIGADDYSSSEVPQWNKAATFEPQQANNSGSWLSGVSLVTSALAIVLVLTGTQVTTSEGELRIRFGSGQSEQALVKLVDSKLDAFKQNQQDAFTLYAQTLQQQQSESASQLTNYLLSSSRKERREDFAELIKFVNQQRSDDQLFYARQLNQLQQDVYHDATGVALESIQQ
B4: AS03_1244 (protein)
chain: MKQFDPDVNIRPKEDSIRHYSVPDDYFASFTDKLMAQIPAVKEENTVVVPSVALWPKLRPLLYLAASFLLMIGMFKAFSLFGVGSDTGRTTSTSAGLVALDHGDTRWSEDTDYRDFLHDNCAETVSDEWVLTDFSE
B5: AS03_1198 (protein)
chain: MDKDFDFDNIGKRTPYRTPDNFFEETQRKILERTVDEQRKKRRLKRIIPTVIAVAAVLAGILFTPSLRYMNTDTPSASNILAVDKNNVTTDPVDKWIKELSDEELEELVSFSENDIFLN
B6: AS14_1324 (protein)
chain: MSGSRPEPEGHLAEQHLGDRLSALVDGELGHDARERVLAHVATCPKCKAEVDAQRRLKNVFAEAAPPAPSESFLARLQGLPGGGDSDGGGSPFSGLPGGFGASAASGVFGPRRDERFEFDYVPAGSHTPVLPSATSGRGFRIHEVGRHESDRSASRGLRFAFAAAGAVSLAAIALGGVTLGTPDTTTEARGSGSGSNVTPLRTPGSAAATGSESQRRRTAGPLLGQGQRALGDLPVASTTASAPLLPGMPAPAGGDARQQAVRALTTPVTAGAAAMSPLIRPLEAVPPLSLSSWSAAPEVRPPGLLAAPDPAPSPYPAASPAASSSPLR
B7: AS11_987 (protein)
chain: MNKHPDNNLLEAYASGSIDAVSGLVVATHLETCSKCRAYVNQVEASQANTVSESPSEYSPEFDDMLNDIINAEPVNDNVVIQDTAFVNVAGKSFELPKTLVRFSDLVGSWRSYGGKVFSAQIDLGEDARVSLMYIGENVQIPQHTHRGLESTLVLHGGFSDEDGQYEEGDLMVRDASVKHSPFTQEGEDCLCLTVLTEPMIFTQGVARIFNLFGKGLYP

Biological target: T1, ECF20_992

In order of falling fold repression:
1. B1  7.41
2. B6  6.81
3. B7  3.26
4. B3  2.52
5. B2  1.95
6. B4  1.93
7. B5  0.888

Biological target: T2, ECF33_375

In order of falling fold repression:
1. B6  3.42
2. B1  3.16
3. B2  2.28
4. B7  1.99
5. B4  1.51
6. B3  1.13
7. B5  0.909

Biological target: T3, ECF03_1244

In order of falling fold repression:
1. B4  60.8
2. B1  4.39
3. B6  3.13
4. B7  2.2
5. B2  1.54
6. B3  1.39
7. B5  1.36

Biological target: T4, ECF02_915

In order of falling fold repression:
1. B7  3.1
2. B1  2.99
3. B6  2.86
4. B5  2.43
5. B3  2.34
6. B4  2
7. B2  1.55

Biological target: T5, ECF31_34

In order of falling fold repression:
1. B6  5.28
2. B1  3.92
3. B2  3.29
4. B7  2.53
5. B3  1.97
6. B4  1.92
7. B5  1.12

Biological target: T6, ECF14_3200

In order of falling fold repression:
1. B6  35.5
2. B2  9.47
3. B1  4.47
4. B7  2.94
5. B4  2.19
6. B3  2.06
7. B5  0.974

Biological target: T7, ECF17_1458

In order of falling fold repression:
1. B6  7.16
2. B2  5.96
3. B1  3.13
4. B7  2.13
5. B3  1.83
6. B4  1.62
7. B5  0.894

Biological target: T8, ECF02_2817

In order of falling fold repression:
1. B7  3.07
2. B6  2.97
3. B1  2.53
4. B3  2.1
5. B4  1.96
6. B5  1.85
7. B2  1.58

Biological target: T9, ECF11_987

In order of rising fold repression:
1. B3  1.52
2. B5  1.61
3. B4  2.14
4. B2  2.8
5. B1  6.21
6. B6  6.84
7. B7  77.4

Biological target: T10, ECF03_1198

In order of rising fold repression:
1. B3  1.5
2. B4  2.13
3. B7  2.32
4. B6  3.58
5. B2  3.84
6. B1  6.14
7. B5  45.8

These binders were tested against ECF26_4464.

In order of falling fold repression:
1. B2  24.7
2. B6  15.9
3. B1  6.23
4. B7  2.97
5. B3  2.22
6. B4  2.21
7. B5  1.48

Biological target: T11, ECF28_1040

In order of rising fold repression:
1. B1  1.03
2. B5  1.23
3. B4  1.68
4. B7  2.02
5. B3  2.3
6. B2  4.28
7. B6  4.3

Biological target: T12, ECF22_4450

In order of falling fold repression:
1. B1  9.53
2. B6  8.4
3. B7  5.44
4. B2  4.63
5. B4  2.49
6. B3  1.97
7. B5  1.2

Biological target: T13, ECF33_423

In order of falling fold repression:
1. B6  4.28
2. B1  3.53
3. B2  3.04
4. B7  2.38
5. B4  1.65
6. B3  1.1
7. B5  0.857

Biological target: T14, ECF14_1324

In order of falling fold repression:
1. B6  47.4
2. B2  9
3. B1  8.02
4. B7  3.15
5. B3  2.61
6. B4  2.35
7. B5  0.798
